Laboratory results reported in paper PMC11985770, “The SlERF4-9-SlCDF1/3-SlAEC2/SlPIN5 module regulates tomato root morphogenesis”.

Molecular target: SlERF4-9-GST (Solanum lycopersicum (tomato), UniProt A0A3Q7G811 1-264)
Assay: EMSA; Beyotime Chemiluminescent EMSA Kit; 100x cold probe as competitor; buffer, salt, pH and temperature not stated
Details: protein: recombinant; tags: GST (pGEX6P-1); label: biotin on both strands (3' end); blunt

Sequence of SlERF4-9-GST (A0A3Q7G811 entry or part of it): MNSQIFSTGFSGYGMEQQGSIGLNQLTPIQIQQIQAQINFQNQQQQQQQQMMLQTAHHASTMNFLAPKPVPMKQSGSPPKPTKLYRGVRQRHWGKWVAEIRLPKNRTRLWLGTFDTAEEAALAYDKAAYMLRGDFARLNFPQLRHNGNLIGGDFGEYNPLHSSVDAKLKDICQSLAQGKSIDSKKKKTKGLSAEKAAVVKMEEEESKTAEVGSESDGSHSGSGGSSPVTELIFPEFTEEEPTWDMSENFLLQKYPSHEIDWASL

B1: proCDF1 probe (P1 site) (dsDNA)
DNA 1: ACGACGTTGGCCGGCGGCGGCGAATTCACGGCGGCTAAACGAGTTTT
DNA 2: AAAACTCGTTTAGCCGCCGTGAATTCGCCGCCGCCGGCCAACGTCGT
  binding result: binds

B2: proCDF3 probe (P2 site) (dsDNA)
DNA 1: CGTCAACTCGCCGGCGGCGACTTCGTCGGA
DNA 2: TCCGACGAAGTCGCCGCCGGCGAGTTGACG
  binding result: binds
